In patent publication US20210146029A1:

Target: sTNF-R1 (soluble Tumor Necrosis Factor Receptor 1), spiked into buffer or human plasma (UniProt P19438)
Test: column run with spiked human plasma (9.74 ng/mL sTNF-R1), pre- against post-column concentration at each time point

Chain of UniProt P19438 (P19438 30-211 limits assumed): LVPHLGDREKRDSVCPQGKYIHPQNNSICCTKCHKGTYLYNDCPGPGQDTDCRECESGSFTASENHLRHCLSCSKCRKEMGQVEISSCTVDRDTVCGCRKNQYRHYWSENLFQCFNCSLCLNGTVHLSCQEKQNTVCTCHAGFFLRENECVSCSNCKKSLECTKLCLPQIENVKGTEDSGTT

## recombinant single chain TNFα ligand (sc-TNFα ligand, comprising 3 TNFα monomers), covalently linked to agarose beads
  binding efficiency: > 95%
